Measurements: publication PMC4575208, “Characterization of Flavin-Containing Opine Dehydrogenase from Bacteria” (PLoS ONE, 2015)

T1: PpOdhB (beta-subunit of PpOpnDH, PpOdhABC) (Pseudomonas putida, UniProt Q88EK5+Q88EK6)
T1 construct: gene ooxB; N-terminal (His)6-tagged PpOdhB in the PpOdhABC complex (α4β4γ4); with PpOdhA (PP_4456) and PpOdhC
T1 sequence (Q88EK5 1-375): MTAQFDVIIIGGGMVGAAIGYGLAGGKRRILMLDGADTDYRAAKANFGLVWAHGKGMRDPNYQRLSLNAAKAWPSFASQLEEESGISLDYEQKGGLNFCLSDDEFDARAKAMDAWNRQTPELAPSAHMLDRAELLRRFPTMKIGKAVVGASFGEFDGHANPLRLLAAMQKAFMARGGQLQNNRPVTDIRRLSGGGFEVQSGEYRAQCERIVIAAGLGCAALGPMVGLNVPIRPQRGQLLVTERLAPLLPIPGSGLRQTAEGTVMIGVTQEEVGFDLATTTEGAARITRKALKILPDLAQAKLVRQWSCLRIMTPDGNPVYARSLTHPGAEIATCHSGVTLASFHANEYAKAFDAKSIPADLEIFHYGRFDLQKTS
T1 sequence (Q88EK6 2-464): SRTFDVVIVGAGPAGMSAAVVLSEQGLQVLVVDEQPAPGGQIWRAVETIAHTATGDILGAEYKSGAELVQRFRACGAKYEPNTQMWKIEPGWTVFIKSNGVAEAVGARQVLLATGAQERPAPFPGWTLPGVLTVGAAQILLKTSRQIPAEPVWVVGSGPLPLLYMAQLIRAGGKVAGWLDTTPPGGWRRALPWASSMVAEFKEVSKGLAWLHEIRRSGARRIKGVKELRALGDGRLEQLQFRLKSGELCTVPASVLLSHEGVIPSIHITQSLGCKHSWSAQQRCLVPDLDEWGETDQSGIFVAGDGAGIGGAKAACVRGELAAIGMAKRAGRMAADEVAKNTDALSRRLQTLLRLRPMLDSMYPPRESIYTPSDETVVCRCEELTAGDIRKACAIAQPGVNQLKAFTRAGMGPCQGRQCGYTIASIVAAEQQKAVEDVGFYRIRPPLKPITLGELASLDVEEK

T2: (His)6-tagged PpOdhB, β-subunit of opine dehydrogenase from Pseudomonas putida KT2440 (Pseudomonas putida KT2440, UniProt Q88EK5 1-375)
T2 construct: PpOdhB, product of gene PP_4457 of Pseudomonas putida KT2440; first gene of the operon PpOdhB-C-A; band of 42 kDa; Carries FAD; also called PP_4457; source: P. putida KT2442-oxyR1 harboring pUCP/PpOdhABC, co-expressed from the PpOdhB-C-A operon, purified (Ni-NTA); not shown: His6, N-terminal, kept
T2 sequence (looked up): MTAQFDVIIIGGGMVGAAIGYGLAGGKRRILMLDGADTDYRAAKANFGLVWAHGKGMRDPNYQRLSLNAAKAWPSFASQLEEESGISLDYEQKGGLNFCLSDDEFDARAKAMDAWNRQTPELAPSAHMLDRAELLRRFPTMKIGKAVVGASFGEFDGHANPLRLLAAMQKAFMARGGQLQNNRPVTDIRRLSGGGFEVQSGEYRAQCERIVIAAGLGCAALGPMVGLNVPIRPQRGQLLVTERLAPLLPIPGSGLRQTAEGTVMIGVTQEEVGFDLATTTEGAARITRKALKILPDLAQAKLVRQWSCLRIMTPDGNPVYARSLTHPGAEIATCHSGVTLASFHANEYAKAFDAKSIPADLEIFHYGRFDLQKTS


Assays:
[1] = target: (His)6-tagged PpOdhB, β-subunit of opine dehydrogenase from Pseudomonas putida KT2440 (Pseudomonas putida KT2440) (UniProt Q88EK5); assay: pull-down; PpOdhB-C-A operon with N-terminal (His)6-tag on OdhB expressed in P. putida cells; Ni-NTA chromatography in buffer with Tween-20, 300 mM NaCl, pH 8.0; bands on SDS-PAGE identified by N-terminal sequencing; molar ratio by image scanning of SDS-PAGE peak areas (ImageJ)
[2] = target: T1, PpOdhB (beta-subunit of PpOpnDH, PpOdhABC); assay: inhibition of nopaline ([…]) dehydrogenase activity of the purified enzyme; type: biochemical
[3] = substrate: N=C(N)NCCC[C@H](N[C@H](CCC(=O)O)C(=O)O)C(=O)O; assay: purified protein; details: FAD, FMN, [2Fe-2S] the β- and α-subunit were both necessary for substrate binding
[4] = substrate: C[C@@H](N[C@@H](CCCNC(=N)N)C(=O)O)C(=O)O; assay: purified protein; details: FAD, FMN
[5] = target: T2, (His)6-tagged PpOdhB, β-subunit of …; assay: pull-down; PpOdhB-C-A operon with N-terminal (His)6-tag on OdhB expressed in P. putida cells; Ni-NTA chromatography in buffer with Tween-20, 300 mM NaCl, pH 8.0; bands on SDS-PAGE identified by N-terminal sequencing; molar ratio by image scanning of SDS-PAGE peak areas (ImageJ); details: partners not purified

Molecule | Km [4] [mM] | kcat [4] [s⁻¹] | kcat/Km [4] [M⁻¹ s⁻¹] | further results
PpOdhC, γ-subunit of opine dehydrogenase from Pseudomonas putida KT2440 (enzyme) |  |  |  | stoichiometry N [1]: 1
O=C(O)CCC(=O)C(=O)O [α-ketoglutarate] |  |  |  | IC50 [2]: 589 µM
PpOdhB (beta-subunit of PpOpnDH, PpOdhABC) (Pseudomonas putida KT2440) (protein) chain 1: MTAQFDVIIIGGGMVGAAIGYGLAGGKRRILMLDGADTDYRAAKANFGLVWAHGKGMRDPNYQRLSLNAAKAWPSFASQLEEESGISLDYEQKGGLNFCLSDDEFDARAKAMDAWNRQTPELAPSAHMLDRAELLRRFPTMKIGKAVVGASFGEFDGHANPLRLLAAMQKAFMARGGQLQNNRPVTDIRRLSGGGFEVQSGEYRAQCERIVIAAGLGCAALGPMVGLNVPIRPQRGQLLVTERLAPLLPIPGSGLRQTAEGTVMIGVTQEEVGFDLATTTEGAARITRKALKILPDLAQAKLVRQWSCLRIMTPDGNPVYARSLTHPGAEIATCHSGVTLASFHANEYAKAFDAKSIPADLEIFHYGRFDLQKTS chain 2: SRTFDVVIVGAGPAGMSAAVVLSEQGLQVLVVDEQPAPGGQIWRAVETIAHTATGDILGAEYKSGAELVQRFRACGAKYEPNTQMWKIEPGWTVFIKSNGVAEAVGARQVLLATGAQERPAPFPGWTLPGVLTVGAAQILLKTSRQIPAEPVWVVGSGPLPLLYMAQLIRAGGKVAGWLDTTPPGGWRRALPWASSMVAEFKEVSKGLAWLHEIRRSGARRIKGVKELRALGDGRLEQLQFRLKSGELCTVPASVLLSHEGVIPSIHITQSLGCKHSWSAQQRCLVPDLDEWGETDQSGIFVAGDGAGIGGAKAACVRGELAAIGMAKRAGRMAADEVAKNTDALSRRLQTLLRLRPMLDSMYPPRESIYTPSDETVVCRCEELTAGDIRKACAIAQPGVNQLKAFTRAGMGPCQGRQCGYTIASIVAAEQQKAVEDVGFYRIRPPLKPITLGELASLDVEEK |  |  |  | Km [3]: 0.476 mM; kcat [3]: 315 s⁻¹; kcat/Km [3]: 663000 M⁻¹ s⁻¹
BjOdhB2 (beta-subunit of BjOpnDH2, BjOdhAB2C) (Bradyrhizobium diazoefficiens USDA 110) (protein) chain 1: MTGNVDAIVIGGGIHGCSTTLHLCLAGLKPVLIEKDYAGRHASGVNAGGVRQLARHVPEIPLSIRSMGIWERITDLLDDDCSFESHGQVLVAENEDELAVCRARVAELNALGFTHEELIDATELRRLVPAVAETCPGGVVSRRDGAANPAQTTTAFRRKAEQLGATVREGVAASNIRYSDGLWYVDVGSDTYAAPVLVNAAGAWAGKIAAALGEPVPVETVAPMLMITSRVPHFIDPVVILRGRKLSFKQFSNGTVLIGGGHLATPYQDRNETVLDWKSLAISARTVFELFPVMRSATIVRAWAGIEAKMKDDIPVFGPSSRHKGLYHQFGFSLHGFQLGPGAGAVMAELIVNGGTQTRIGDLGIDRFHPSTL chain 2: MTVAPKREDYDVVVIGAGPAGLAAAATSAEAGLSTLLLDENIGPGGQVFRAISSTPVTDRNQLGADYWVGADLVQSLRASNAEVIQRAMVWSLDRNLDIAVSVGGASAFVKAKRVILATGALERPFPIPGWTLPGVMTAGAAQTMLKSSALVPDGRTVIAGQGPLLWLLAAQILRLGGRIDRILDTTERGNYFAALPHAFAFLTSPYFAKGLSMMREVKAKVQVVTGVTELTASGDGQLANVSYVAGGKRETLPVDLLLLHQGVVPNVNLAMAAGVEHRWDELQLCWSPVLDANGSSSVAGIAIAGDGAGIGGANAAVVRGRIAARAAVEALAPAAAAKLASMATLRADLAKAERGRAFLDTLFRPAPQFRIPSGDTIVCRCEEVTAKDVLDSVAIGATGPNQLKAYRRTGMGPCQGRLCGLTVTELMAQARGKSPQEIGYYRLRAPVKPITLAELAAVPKTEDDVKAVVRG | 19.5 | 72.8 | 3730 | 
BjOdhB1 (beta-subunit of BjOpnDH1, BjOdhAB1C) (Bradyrhizobium diazoefficiens USDA 110) (protein) chain 1: MSGEYDVAVVGGGLLGSAIAWGLGRLGKKVAVLDEGDITKRASRANFALVWVQSKGLGMPAYTVWTVQASQAWGRLAFELKQQTGLDVSLQQNGGFHLTLGEDEFGQRTELVKRMHNQVGAADYKMEMLPASEVKKALPLIGPEVSGGSYCPLDGHVNSLRTFRAFHTGFMAFGIDYLPERPVSAISKSGGEFRLTTPKGELRAAKVVLAAGNANQTLAPMVGLHAPMGPTRGQIVVTERTMPFLPHPLTTIRQTDEGTVMIGDSKEDELDDRTLKHSISAVMTDRAQRMFPHLSRLNVIRSWAGIRVMPQDGFPIYDQSETHPGAFVACCHSGVTLASNHAFEIARMVAQGALEPELVGAFSASRFGGAGAANNSGY chain 2: MTVAPKREDYDVVVIGAGPAGLAAAATSAEAGLSTLLLDENIGPGGQVFRAISSTPVTDRNQLGADYWVGADLVQSLRASNAEVIQRAMVWSLDRNLDIAVSVGGASAFVKAKRVILATGALERPFPIPGWTLPGVMTAGAAQTMLKSSALVPDGRTVIAGQGPLLWLLAAQILRLGGRIDRILDTTERGNYFAALPHAFAFLTSPYFAKGLSMMREVKAKVQVVTGVTELTASGDGQLANVSYVAGGKRETLPVDLLLLHQGVVPNVNLAMAAGVEHRWDELQLCWSPVLDANGSSSVAGIAIAGDGAGIGGANAAVVRGRIAARAAVEALAPAAAAKLASMATLRADLAKAERGRAFLDTLFRPAPQFRIPSGDTIVCRCEEVTAKDVLDSVAIGATGPNQLKAYRRTGMGPCQGRLCGLTVTELMAQARGKSPQEIGYYRLRAPVKPITLAELAAVPKTEDDVKAVVRG | 4.81 | 0.0982 | 20.3 | 
PpOdhA, α-subunit of opine dehydrogenase from Pseudomonas putida KT2440 (enzyme, UniProt Q88EK6 1-464, looked up, PpOdhA, product of gene PP_4456 of Pseudomonas putida KT2440; GTG used as start codon; band of 46 kDa (45 kDa in the methods); The start (GTG codon) may differ from the annotated entry; also called PP_4456) MSRTFDVVIVGAGPAGMSAAVVLSEQGLQVLVVDEQPAPGGQIWRAVETIAHTATGDILGAEYKSGAELVQRFRACGAKYEPNTQMWKIEPGWTVFIKSNGVAEAVGARQVLLATGAQERPAPFPGWTLPGVLTVGAAQILLKTSRQIPAEPVWVVGSGPLPLLYMAQLIRAGGKVAGWLDTTPPGGWRRALPWASSMVAEFKEVSKGLAWLHEIRRSGARRIKGVKELRALGDGRLEQLQFRLKSGELCTVPASVLLSHEGVIPSIHITQSLGCKHSWSAQQRCLVPDLDEWGETDQSGIFVAGDGAGIGGAKAACVRGELAAIGMAKRAGRMAADEVAKNTDALSRRLQTLLRLRPMLDSMYPPRESIYTPSDETVVCRCEELTAGDIRKACAIAQPGVNQLKAFTRAGMGPCQGRQCGYTIASIVAAEQQKAVEDVGFYRIRPPLKPITLGELASLDVEEK |  |  |  | stoichiometry N [5]: ~1
